The supplement of paper PMC6757056
± gives the standard deviation of the averaged measurements.

B1: library; a variant is named by its letters at N, in order (parent)
chain: GCUGUCACCGAGAAACUGUGAAGUAUAUCUUAAACCUGGGCACUUAAAAGAUAUAUGGAGUUAGUAGUGCAACCUGCUCGGUCUGAUGAGUCCNNNNNNGGACGAAACAGC

Legend:
cyclic di-GMP [1] = variants of: B1; assay: normalized RNA/DNA level without ligand (relative to sTRSVctl = 100) (log10 (% of sTRSVctl)); HEK293T; ligand: cyclic di-GMP (c-di-GMP-II aptamer); higher = less ribozyme self-cleavage, higher mRNA level; settings: reporter: mCherry (pCS4076), ligand present: no
Summary of the method: (§1)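 Library plasmids encoding reporter-linked ribozyme switches (mCherry, or eGFP for some folinic acid experiments) were transfected into HEK293T at 4 µg per 6-well well. Ligand, when used, was added 1 h before transfection. Total RNA was extracted with EDTA 72 h later, then reverse-transcribed, amplified, barcoded and sequenced. RNA level was RNA reads over DNA reads, divided by a spiked-in non-cleaving control (or the top 25 sequences), ×100, log10; only sequences with ≥100 DNA reads were kept.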

cyclic di-GMP [2] = variants of: B1; assay: normalized RNA/DNA level with ligand (relative to sTRSVctl = 100) (log10 (% of sTRSVctl)); HEK293T; ligand: cyclic di-GMP (c-di-GMP-II aptamer); ligand concentration (+) RNA-Seq: 1 mM; higher = less ribozyme self-cleavage, higher mRNA level; settings: reporter: mCherry (pCS4076), ligand present: yes
Summary of the method: as §1

Row | Variant | normalized RNA/DNA level without ligand (log10) (cyclic di-GMP [1]) | normalized RNA/DNA level with ligand (log10) (cyclic di-GMP [2])
1 | AUCCCU | 1.7543 ± 0.001 | 1.91 ± 0.07
2 | ACGACG | 1.57 ± 0.058 | 1.74 ± 0.082
3 | ACGACU | 1.51 ± 0.085 | 1.73 ± 0.14
4 | GAUCCU | 1.7 ± 0.025 | 1.84 ± 0.13
5 | GUACCG | 1.77 ± 0.037 | 1.84 ± 0.069
6 | GCGGUA | 1.55 ± 0.046 | 1.69 ± 0.09
7 | AUGCGG | 1.74 ± 0.024 | 1.82 ± 0.098
8 | AAGGCC | 1.759 ± 0.0039 | 1.83 ± 0.083
9 | UGGGGG | 1.79 ± 0.055 | 1.87 ± 0.09
10 | GUUUAA | 1.54 ± 0.058 | 1.74 ± 0.086
11 | AUGACG | 1.59 ± 0.089 | 1.76 ± 0.086
12 | GUGAGU | 1.59 ± 0.053 | 1.77 ± 0.11
13 | GAGCUA | 1.79 ± 0.038 | 1.88 ± 0.11
14 | GGUAAA | 1.441 ± 0.0091 | 1.62 ± 0.13
15 | UGUUCU | 1.75 ± 0.051 | 1.88 ± 0.13
16 | GAUGAA | 1.45 ± 0.1 | 1.65 ± 0.067
17 | CGUUAG | 1.753 ± 0.0013 | 1.89 ± 0.11
18 | GAGGUG | 1.74 ± 0.049 | 1.84 ± 0.087
19 | CUAGAU | 1.65 ± 0.017 | 1.79 ± 0.069
20 | UCCGGA | 1.606 ± 0.0039 | 1.8 ± 0.096
21 | AGUUGA | 1.57 ± 0.04 | 1.75 ± 0.1
22 | GCCCGU | 1.73 ± 0.048 | 1.84 ± 0.14
23 | ACUAUC | 1.622 ± 0.012 | 1.79 ± 0.067
24 | CCAUAG | 1.4 ± 0.17 | 1.66 ± 0.043

Row | Variant | normalized RNA/DNA level without ligand (log10) (cyclic di-GMP [1]) | normalized RNA/DNA level with ligand (log10) (cyclic di-GMP [2])
25 | ACGGCA | 1.648 ± 0.011 | 1.77 ± 0.1
26 | GUAUAA | 1.501 ± 0.012 | 1.69 ± 0.088
27 | CUAGGC | 1.74 ± 0.03 | 1.89 ± 0.11
28 | GAACCG | 1.7241 ± 0.00012 | 1.81 ± 0.1
29 | CUGCGC | 1.823 ± 0.0074 | 1.92 ± 0.052
30 | AGGCGA | 1.56 ± 0.037 | 1.67 ± 0.13
31 | CGAUUG | 1.7 ± 0.019 | 1.89 ± 0.03
32 | CGAUUA | 1.28 ± 0.11 | 1.43 ± 0.12
33 | UCCUGG | 1.82 ± 0.057 | 1.91 ± 0.14
34 | AAAUCG | 1.54 ± 0.12 | 1.73 ± 0.061
35 | UCGGCG | 1.87 ± 0.015 | 1.96 ± 0.084
36 | GAGAGC | 1.71 ± 0.02 | 1.85 ± 0.12
37 | CUCCCG | 1.79 ± 0.088 | 1.91 ± 0.14
38 | UUGAGC | 1.73 ± 0.025 | 1.86 ± 0.14
39 | GCCAUC | 1.564 ± 0.0079 | 1.77 ± 0.074
40 | GGUAGA | 1.34 ± 0.04 | 1.55 ± 0.1
41 | GGUAGC | 1.671 ± 0.014 | 1.8 ± 0.12
42 | ACAUAU | 1.45 ± 0.097 | 1.64 ± 0.14
43 | UGGUUG | 1.686 ± 0.011 | 1.83 ± 0.11
44 | CGCCGA | 1.6 ± 0.065 | 1.81 ± 0.072
45 | CUCAGU | 1.75 ± 0.018 | 1.83 ± 0.07
46 | CAGGAU | 1.64 ± 0.094 | 1.78 ± 0.068
47 | UGCAUU | 1.713 ± 0.0057 | 1.84 ± 0.056
48 | AUCCGG | 1.85 ± 0.024 | 1.93 ± 0.023

Row | Variant | normalized RNA/DNA level without ligand (log10) (cyclic di-GMP [1]) | normalized RNA/DNA level with ligand (log10) (cyclic di-GMP [2])
49 | CAUAAC | 1.62 ± 0.028 | 1.75 ± 0.1
50 | UGAUGG | 1.68 ± 0.081 | 1.83 ± 0.066
51 | AGAGCG | 1.81 ± 0.05 | 1.84 ± 0.17
52 | UAUAUG | 1.71 ± 0.044 | 1.84 ± 0.12
53 | CGCGUU | 1.67 ± 0.021 | 1.86 ± 0.12
54 | CCUGAG | 1.55 ± 0.077 | 1.76 ± 0.15
55 | AGUAUC | 1.68 ± 0.022 | 1.81 ± 0.13
56 | UGAUCA | 1.76 ± 0.073 | 1.88 ± 0.11
57 | UGGUAU | 1.661 ± 0.013 | 1.82 ± 0.13
58 | CGUCAC | 1.63 ± 0.065 | 1.78 ± 0.062
59 | ACAGUG | 1.51 ± 0.11 | 1.68 ± 0.067
60 | GCCCUG | 1.76 ± 0.021 | 1.86 ± 0.11
61 | GUGCGA | 1.6 ± 0.071 | 1.73 ± 0.1
62 | UUUACA | 1.73 ± 0.037 | 1.85 ± 0.1
63 | GAGAUC | 1.711 ± 0.0023 | 1.81 ± 0.11
64 | CGCCCC | 1.818 ± 0.0078 | 1.9 ± 0.1
65 | CGUAAG | 1.77 ± 0.056 | 1.86 ± 0.12
66 | GAUUCU | 1.748 ± 0.014 | 1.86 ± 0.12
67 | CCUCGU | 1.75 ± 0.057 | 1.86 ± 0.084
68 | UGUGCU | 1.71 ± 0.071 | 1.87 ± 0.089
69 | AGGGGU | 1.57 ± 0.058 | 1.7 ± 0.13
70 | UAAUGG | 1.676 ± 0.013 | 1.81 ± 0.087
71 | CCGAAC | 1.56 ± 0.058 | 1.72 ± 0.12
72 | GCGCGG | 1.796 ± 0.0029 | 1.87 ± 0.087

Row | Variant | normalized RNA/DNA level without ligand (log10) (cyclic di-GMP [1]) | normalized RNA/DNA level with ligand (log10) (cyclic di-GMP [2])
73 | CAGGGA | 1.53 ± 0.13 | 1.67 ± 0.067
74 | GUGCCC | 1.782 ± 0.016 | 1.84 ± 0.099
75 | GCCGUC | 1.54 ± 0.05 | 1.72 ± 0.12
76 | UGGCUC | 1.78 ± 0.047 | 1.92 ± 0.077
77 | CCCUCG | 1.75 ± 0.0059 | 1.91 ± 0.097
78 | GCAUAA | 1.41 ± 0.19 | 1.61 ± 0.064
79 | AGCCGG | 1.765 ± 0.013 | 1.865 ± 0.018
80 | UCAAAU | 1.5 ± 0.063 | 1.71 ± 0.092
81 | CUGUCU | 1.57 ± 0.086 | 1.76 ± 0.067
82 | UUUCGU | 1.72 ± 0.025 | 1.86 ± 0.083
83 | UUUCGC | 1.789 ± 0.0088 | 1.89 ± 0.14
84 | AAUGGU | 1.62 ± 0.048 | 1.76 ± 0.1
85 | GGAAAC | 1.74 ± 0.088 | 1.83 ± 0.19
86 | AUGGGG | 1.56 ± 0.12 | 1.68 ± 0.08
87 | GCGAAA | 1.34 ± 0.099 | 1.56 ± 0.096
88 | UCUACU | 1.696 ± 0.012 | 1.82 ± 0.097
89 | ACAACA | 1.46 ± 0.076 | 1.68 ± 0.099
90 | AGGCUG | 1.774 ± 0.0035 | 1.87 ± 0.051
91 | UUGAUU | 1.698 ± 0.016 | 1.81 ± 0.083
92 | UGUCCC | 1.81 ± 0.072 | 1.88 ± 0.17
93 | GUGGCG | 1.85 ± 0.022 | 1.87 ± 0.094
94 | GAUGUU | 1.62 ± 0.037 | 1.78 ± 0.086
95 | CCUCAU | 1.65 ± 0.064 | 1.81 ± 0.057
96 | AACUUU | 1.737 ± 0.004 | 1.85 ± 0.09

Row | Variant | normalized RNA/DNA level without ligand (log10) (cyclic di-GMP [1]) | normalized RNA/DNA level with ligand (log10) (cyclic di-GMP [2])
97 | AAAAAA | 1.37 ± 0.12 | 1.6 ± 0.078
98 | CUCCGA | 1.69 ± 0.016 | 1.82 ± 0.15
99 | CCACUG | 1.39 ± 0.042 | 1.63 ± 0.12
100 | AGCGGC | 1.731 ± 0.0051 | 1.87 ± 0.074
101 | CUGGUC | 1.68 ± 0.032 | 1.8 ± 0.14
102 | GCACGG | 1.55 ± 0.053 | 1.66 ± 0.12
103 | UAAACG | 1.747 ± 0.0073 | 1.85 ± 0.068
104 | AUGGUU | 1.46 ± 0.03 | 1.68 ± 0.1
105 | GGUACA | 1.52 ± 0.034 | 1.73 ± 0.051
106 | CGUCGU | 1.78 ± 0.061 | 1.9 ± 0.13
107 | UACACA | 1.7 ± 0.041 | 1.84 ± 0.083
108 | GCCUCA | 1.737 ± 0.0028 | 1.87 ± 0.068
109 | CAAGGG | 1.6 ± 0.063 | 1.8 ± 0.072
110 | CUAAAC | 1.7 ± 0.018 | 1.79 ± 0.095
111 | GAUCAG | 1.8 ± 0.054 | 1.9 ± 0.13
112 | AAGGAC | 1.53 ± 0.1 | 1.73 ± 0.072
113 | UGGGAU | 1.55 ± 0.12 | 1.75 ± 0.11
114 | CAGUGU | 1.718 ± 0.0057 | 1.84 ± 0.12
115 | GUCAGC | 1.67 ± 0.017 | 1.83 ± 0.17
116 | AUUCAA | 1.58 ± 0.032 | 1.77 ± 0.15
